Experimental findings from the RNAGym collection of RNA variant scans (doi:10.1073/pnas.2313332121) are described below.

B1: TPR t1 (parent)
chain: GACCAAUCUGCCCUCAGAGCUCGAGAACAUCUUCGGAUGCAGAGGAGGCAGGCUUCGGUGGCGCGAUAGCGCCAACGUCCUCAACCUCCAAUGCAUCCCACCACAUGAUGAUGCCUGAAGAGCCUUGGUUUUUUG

The data set covers variants of B1. Put plainly: polymerase ribozyme fitness, log enrichment relative to wild type (log ratio); higher = more active; in vitro selection for triplet polymerase activity. The essentials:
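Mutant libraries were PCR-built and transcribed for each subunit of a heterodimeric triplet polymerase ribozyme and selected for one round in triplicate at −7 °C, frozen, before gel excision of extended constructs and streptavidin-bead capture. Input and output libraries were Illumina-sequenced, keeping genotypes with ≥10 input reads and ≥1 read per output. Fitness is a logarithmic ratio of genotype to wild-type enrichment, in base 2, using inverse-variance-weighted replicate averages.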
In the case of GACCAAUCUGCCCUCAGAGCUCGAGAACAUCUUCGGAUGCAGAGGAGGCAGUCUUCGGUGGCGCGAUAGCGCCAACGUCCUCAACCUCCAAUGCAUCCCACCACACGAUGAUGCCUGAAGAGCCUUGGUUUUUUG, the “polymerase ribozyme fitness (log ratio)” value was -1.2. With GACCAAUCUGCCCUCAGAGCUCGAGAACAUCUUCGGAUGCAGAGGAGGCAGUCUUCGGUGGCGCGAUAGCGCCAACGUCCUCAACCUCCAAUGCAUCCCACCACAUGAUGAUGCCUGAAGAGCCUGGGUUUUUUG the figure was -2.79. With GACCAAUCUGCCCUCAGAGCUCGAGAACAUCUUCGGAUGCAGAGGAGGCAGUCUUCGGUGGCGCGAUAGCGCCAACGUCCUCAACCUCCAAUGCAACCCACCACAUGAUGAUGCCUGAAGAGCCUUGGUUUUUUG the figure was -2.01.

In the case of GACCAAUCUGCCCUCAGAGCUCGAGAACAUCUUCGGAUGCAGAGGAGGCAGUCUUCGGUGGCGCGAUAGCGCCAACGUCCUCAACCUCCAAUGCAUCCCACCACAUGAUGAGGCCUGAAGAGCCUUGGUUUUUUG, the “polymerase ribozyme fitness (log ratio)” value is -0.37. The figure for GACCAAUCUGCCCUCAGAGCUCGAGAACAUCUUCGGAUGCAGAGGAGGCAGGAUUAGGUGGCGCGAUAUCGCCAACGUCCUCAACCUCCAAUGCAUCCCACCACAUGAUGAUGCCUGAAGAGCCUUUGUUUUUUG is -1.27. The figure for GACCAAUCUGCCCUCAGAGCUCGAGAACAUCUUCGGAUGCAGAGGAGGCAGUCUUCGGUGGCGCGAUAGCGCCAACGUCCUCAACCACCAAUGCAUCCCACCACAUGAUGAUGCCUGAAGAGCCUUGGUUUUUUG is -1.25; for GACCAAUCUGCCCUCAGAGCUCGAGAACAUCUUCGGAUGCAGAGGAGGCAGUCUUCGGUGGCGCGAUAGCGCCAACGUCCUCAACCUCCAAUGCAUCCCACCACAUGAUGAUGCCUGAAGAGCCUUGGAUUUUUG it is -1.63. On to GACCAAUCUGCCCUCAGAGCUCGAGAACAUCUUCGGAUGCAGAGGAGGCAGUCUUCGGUGGCGCGAUAGCGCCAACGUCCCCAACCUCCAAUGCAUCCCACCACAUGAUGAUGCCUGAAGAGCCUUGGUUUUUUG, for which the “polymerase ribozyme fitness (log ratio)” value was -1.74.

For GACCAAUCUGCCCUCAGAGCUCGAGAACAUCUUCGGAUGCAGAGGAGGCAGUCUUCGGUGGCGCGAUAGCGCCAACGUCCUCAACCUCCAAAGCAUCCCACCAUAUGAUGAUGCCUGAAGAGCCUUGGUUUUUUG, the “polymerase ribozyme fitness (log ratio)” value is -4.43. On to GACCAAUCUGCCCUCAGAGCUCGAGAACAUCUUCGGAUGCAGAGGAGGCAGGAUUUGGUGGCGCGAUAGCGGCAACGUCCUCAACCUCCAAUGCAUCCCACCACAUGAUGCUGCCUGAAGAGCCUUGGUUUUUUG, for which the “polymerase ribozyme fitness (log ratio)” value is -1.38. On to GACCAAUCUGCCCUCAGAGCUCGAGAACAUCUUCGGAUGCAGAGGAGGCAGGAUUCGGUGGCGUGAUAGCGCCAACGUCCUCAACCUCCAAUGCAUCCUACCACAUGAUGAUGCCUGAAGAGCCUUGGUUUUGUG, for which the “polymerase ribozyme fitness (log ratio)” value was -4.1.

Consider GACCAAUCUGCCCUCAGAGCUCGAGAACAUCUUCGGAUGCAGAGGAGGCAGGAUUGGGUGGCGCGAUAGCGCCAACGUCCGCAACCUCCAAUGCAUCCCAGCACAUGAUGAUGCCUGAAGAGCCUUGGCUUUUUG, for which the “polymerase ribozyme fitness (log ratio)” value is -2.89. The figure for GACCAAUCUGCCCUCAGAGCUCGAGAACAUCUUCGGAUGCAGAGGAGGCAGGAUUCGGUGGCGCGAUAGCGCCAACGUCCUCAACCUCCAAUGCAUCCCACCACAUGAUGCUGCCUGAAGAGCCUUGGUUUUUUG is 0.297; for GACCAAUCUGCCCUCAGAGCUCGAGAACAUCUUCGGAUGCAGAGGAGGCAGUCUUCGGUGGCGCGAUAGCGCCAACGUCCUCAACCUCCAAUGCAUCCCACCACACGAUGAUGCCUGGAGAGCCUUGGUUUUUUG it is -0.754; for GACCAAUCUGCCCUCAGAGCUCGAGAACAUCUUCGGAUGCAGAGGAGGCAGGAUUUGGUGGCGCGAUAGCGCCAACGCCCUCAACCUCCAAUGCAUCCCACCACAUGAUGAUGCCUGUACAGCCUUGGUUUUUUG it is 0.115. With GACCAAUCUGCCCUCAGAGCUCGAGAACAUCUUCGGAUGCAGAGGAGGCAGUCUUCGGUGGCGCGAUAGCGCCAACGUCCUCAACCUCCAACGCAUCCCACCACAUGAUGAUGGCUGAAGAGCCUUGGUUUUUUG the figure was -5.11. Take GACCAAUCUGCCCUCAGAGCUCGAGAACAUCUUCGGAUGCAGAGGAGGCAGGAUUCGGUGGCGCGUUAGCGCCAACGUCCUCAACCUCCAAUGCAUCCCACCACAUGAUGAUGCCUGAAGAGCCUUGGUUUUUUG: the “polymerase ribozyme fitness (log ratio)” value is -1.07. Take GACCAAUCUGCCCUCAGAGCUCGAGAACAUCUUCGGAUGCAGAGGAGGCAGGAUUCGGUGGCGCGAUAGCGCCGACGUCCUCAACCUCCAAUGCAUCCCACCACAUGAUGAUGCCUGAAGAGCCUUGGUUUUUUG: the “polymerase ribozyme fitness (log ratio)” value is -0.303. The figure for GACCAAUCUGCCCUCAGAGCUCGAGAACAUCUUCGGAUGCAGAGGAGGCAGGAUUCGGUGGAGCGAUAGCGCCAACGUCCUCAACCUCCAAUGCAUCCCACCACAUGAUGAUGCCUGAAGAGCCCUGGUUUUUUG is -6.14; for GACCAAUCUGCCCUCAGAGCUCGAGAACAUCUUCGGAUGCAGAGGAGGCAGGAUUCGGUGGUGCGAUAGCGCCAACGUCCUCAACCUCCAAUGCAUUCCACCACAUGAUGAUGCCUGAACAGCCUUGGUUUUUUG it is 0.732; for GACCAAUCUGCCCUCAGAGCUCGAGAACAUCUUCGGAUGCAGAGGAGGCAGGAUUGGGUGGCCCGAUAGCGCCAACGUCCUCAACCUCCAAUGCAUCCCACCACACGAUGAUGCCUGAAGAGCCUUGGUUUUUUG it is -0.653.
